# Source: IntAct's records for PubMed 15901771
# B1: Potassium voltage-gated channel protein eag (Drosophila melanogaster (Fruit fly)), Q02280 (parent)
# chain: MPGGRRGLVAPQNTFLENIIRRSNSQPDSSFLLANAQIVDFPIVYCNESFCKISGYNRAEVMQKSCRYVCGFMYGELTDKETVGRLEYTLENQQQDQFEILLYKKNNLQCGCALSQFGKAQTQETPLWLLLQVAPIRNERDLVVLFLLTFRDITALKQPIDSEDTKGVLGLSKFAKLARSVTRSRQFSAHLPTLKDPTKQSNLAHMMSLSADIMPQYRQEAPKTPPHILLHYCAFKAIWDWVILCLTFYTAIMVPYNVAFKNKTSEDVSLLVVDSIVDVIFFIDIVLNFHTTFVGPGGEVVSDPKVIRMNYLKSWFIIDLLSCLPYDVFNAFDRDEDGIGSLFSALKVVRLLRLGRVVRKLDRYLEYGAAMLILLLCFYMLVAHWLACIWYSIGRSDADNGIQYSWLWKLANVTQSPYSYIWSNDTGPELVNGPSRKSMYVTALYFTMTCMTSVGFGNVAAETDNEKVFTICMMIIAALLYATIFGHVTTIIQQMTSATAKYHDMLNNVREFMKLHEVPKALSERVMDYVVSTWAMTKGLDTEKVLNYCPKDMKADICVHLNRKVFNEHPAFRLASDGCLRALAMHFMMSHSAPGDLLYHTGESIDSLCFIVTGSLEVIQDDEVVAILGKGDVFGDQFWKDSAVGQSAANVRALTYCDLHAIKRDKLLEVLDFYSAFANSFARNLVLTYNLRHRLIFRKVADVKREKELAERRKNEPQLPQNQDHLVRKIFSKFRRTPQVQAGSKELVGGSGQSDVEKGDGEVERTKVFPKAPKLQASQATLARQDTIDEGGEVDSSPPSRDSRVVIEGAAVSSATVGPSPPVATTSSAAAGAGVSGGPGSGGTVVAIVTKADRNLALERERQIEMASSRATTSDTYDTGLRETPPTLAQRDLIATVLDMKVDVRLELQRMQQRIGRIEDLLGELVKRLAPGAGSGGNAPDNSSGQTTPGDEICAGCGAGGGGTPTTQAPPTSAVTSPVDTVITISSPGASGSGSGTGAGAGSAVAGAGGAGLLNPGATVVSSAGGNGLGPLMLKKRRSKSRKAPAPPKQTLASTAGTATAAPAGVAGSGMTSSAPASADQQQQHQSTADQSPTTPGAELLHLRLLEEDFTAAQLPSTSSGGAGGGGGSGSGATPTTPPPTTAGGSGSGTPTSTTATTTPTGSGTATRGKLDFL
# partner: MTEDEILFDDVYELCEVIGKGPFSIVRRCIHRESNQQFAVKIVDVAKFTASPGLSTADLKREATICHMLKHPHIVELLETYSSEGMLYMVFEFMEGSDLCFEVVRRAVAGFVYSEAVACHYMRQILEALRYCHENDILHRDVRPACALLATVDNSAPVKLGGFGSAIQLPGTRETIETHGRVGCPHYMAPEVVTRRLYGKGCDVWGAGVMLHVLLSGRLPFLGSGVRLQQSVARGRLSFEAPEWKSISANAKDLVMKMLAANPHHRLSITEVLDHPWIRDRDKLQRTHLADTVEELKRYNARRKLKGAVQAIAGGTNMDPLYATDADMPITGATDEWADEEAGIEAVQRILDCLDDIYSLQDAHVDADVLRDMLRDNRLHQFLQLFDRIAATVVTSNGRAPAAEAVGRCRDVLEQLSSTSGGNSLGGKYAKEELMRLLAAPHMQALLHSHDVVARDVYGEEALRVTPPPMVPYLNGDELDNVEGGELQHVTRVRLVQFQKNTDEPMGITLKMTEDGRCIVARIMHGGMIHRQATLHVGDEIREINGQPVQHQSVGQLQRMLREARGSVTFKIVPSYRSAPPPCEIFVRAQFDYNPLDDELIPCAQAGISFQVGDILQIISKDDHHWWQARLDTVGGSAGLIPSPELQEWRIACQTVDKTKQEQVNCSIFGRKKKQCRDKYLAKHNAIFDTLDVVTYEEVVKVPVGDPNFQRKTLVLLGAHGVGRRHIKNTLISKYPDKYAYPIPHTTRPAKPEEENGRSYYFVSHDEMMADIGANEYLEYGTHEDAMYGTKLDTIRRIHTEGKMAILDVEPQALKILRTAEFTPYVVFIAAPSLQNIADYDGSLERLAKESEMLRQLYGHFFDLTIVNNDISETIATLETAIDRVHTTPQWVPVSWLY
# Variants of: B1
# Details: with cskp_drome CASK
row,Variant,effect of a mutation on the interaction
1,R1037L,decreasing interaction
2,K1040M,decreasing interaction
